According to patent publication US20210214447A1 (SHANGHAI INSTITUTE OF MATERIA MEDICA CHINESE ACADEMY OF …, published 2021):
Positions count from the first letter of the chain named. Where two headings read alike, the source gives them in different places.

T1: human AXL on the surface of tumor cells (human, UniProt P30530 26-894)
T1 construct: whole, on cells; endogenous protein of human tumor cell lines; the cell line is named under assay or readout; also called AXL on the cell surface
T1 sequence (looked up): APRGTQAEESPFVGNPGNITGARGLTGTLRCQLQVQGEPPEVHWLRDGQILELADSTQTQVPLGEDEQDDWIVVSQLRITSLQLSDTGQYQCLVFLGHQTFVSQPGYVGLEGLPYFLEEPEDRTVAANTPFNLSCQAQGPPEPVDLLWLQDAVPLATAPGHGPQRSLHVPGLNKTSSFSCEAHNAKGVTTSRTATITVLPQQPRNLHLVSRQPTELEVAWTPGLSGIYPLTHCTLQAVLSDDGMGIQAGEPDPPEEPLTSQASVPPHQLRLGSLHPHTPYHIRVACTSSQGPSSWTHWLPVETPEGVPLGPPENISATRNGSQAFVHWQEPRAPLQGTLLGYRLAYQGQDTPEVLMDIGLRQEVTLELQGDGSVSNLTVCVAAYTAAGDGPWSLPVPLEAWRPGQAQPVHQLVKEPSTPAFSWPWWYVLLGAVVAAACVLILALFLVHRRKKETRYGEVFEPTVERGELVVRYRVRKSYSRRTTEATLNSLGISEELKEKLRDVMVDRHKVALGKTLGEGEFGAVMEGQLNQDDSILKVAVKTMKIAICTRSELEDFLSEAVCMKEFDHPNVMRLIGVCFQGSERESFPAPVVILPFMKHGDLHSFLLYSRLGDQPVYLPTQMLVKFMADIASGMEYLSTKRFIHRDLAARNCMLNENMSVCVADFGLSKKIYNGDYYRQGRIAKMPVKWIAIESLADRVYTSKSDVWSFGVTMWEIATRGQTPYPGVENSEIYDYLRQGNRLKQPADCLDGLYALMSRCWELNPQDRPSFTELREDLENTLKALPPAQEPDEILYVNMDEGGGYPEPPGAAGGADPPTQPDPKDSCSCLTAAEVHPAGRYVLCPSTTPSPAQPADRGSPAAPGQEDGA

T2: extracellular domain of human AXL protein (AXL-ECD) (human, UniProt P30530 31-449)
T2 construct: expressed in HEK293T cells; coated on the ELISA plate; also called AXL-ECD protein; human AXL extracellular domain protein
T2 sequence: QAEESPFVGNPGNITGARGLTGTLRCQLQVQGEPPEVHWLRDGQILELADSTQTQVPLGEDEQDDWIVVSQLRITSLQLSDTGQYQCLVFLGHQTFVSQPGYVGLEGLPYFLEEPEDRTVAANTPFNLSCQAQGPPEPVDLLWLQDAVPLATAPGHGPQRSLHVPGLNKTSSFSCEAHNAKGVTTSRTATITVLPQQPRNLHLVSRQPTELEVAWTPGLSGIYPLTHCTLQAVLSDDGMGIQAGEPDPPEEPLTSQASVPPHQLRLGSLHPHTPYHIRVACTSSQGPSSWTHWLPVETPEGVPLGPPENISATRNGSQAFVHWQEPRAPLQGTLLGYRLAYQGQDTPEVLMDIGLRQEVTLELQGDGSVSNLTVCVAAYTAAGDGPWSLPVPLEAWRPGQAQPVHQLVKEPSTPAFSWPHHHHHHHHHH

B1: Hu002-1 (antibody, V domains shown)
VH: QVQLVQSGAEVKKPGASVKVSCKASGYPFTDFYINWVRQAPGQGLEWMGWIYPGSGNTKYNEKFKGRVTMTRDTSISTAYMELSRLRSDDTAVYYCARSTGFFDYWGQGTLVTVSS
VL: EIVLTQSPATLSLSPGERATLSCSASSSIGYMYWYQQKPGQAPRLLIYLTSNLASGIPARFSGSGSGTDFTLTISSLEPEDFAVYYCQQWSSNPPTFGQGTKLEIK
notes: humanized from mAb002c; also called Hu002c-1
B2: Hu002-2 (antibody, V domains shown)
VH: B1 VH with M70L, R72V
VL: B1 VL
notes: humanized from mAb002c; also called Hu002c-2
B3: Hu002-4 (antibody, V domains shown)
VH: B1 VH
VL: B1 VL with F70Y
notes: humanized from mAb002c; also called Hu002c-4
B4: mAb001 (antibody, V domains shown)
VH: AVQLQESGPSLVKPSQTLSLTCSVTGDSITSGYWSWIRKFPGNKLESMGYMTYSGATYYNPSLKSRISITRDTSKNQYYLQLNSVTPEDTATYYCARGGNSYFFDYWGQGTTLTVSS
VL: DIQMTQSPASLSVSVGETVTITCRASENIYSNLAWYQLKQGKSPHLLVYAATNLADGVPSRFSGSGSGTQYSLKIISLQSEDFGTYYCQHFWGTPLTFGAGTKLELK
notes: murine hybridoma antibody, IgG1/k; also called original murine antibody mAb001
B5: mAb002 (antibody, V domains shown)
VH: QIQLQQSGPELVKPGASVKISCKASGYPFTDFYINWVKQKPGQGLEWIGWIYPGSGNTKYNEKFKGKATLTVDTSSSTAYMQLSSLTSEDTAVYFCARSTGFFDYWGQGTTLTVSS
VL: QIVLTQSPALMSASPGEKVTMTCSASSSIGYMYWYQQKPRSSPKSWIYLTSNLASGVPARFSGSGSGTSYSLTISSMEAEDAATYYCQQWSSNPPTFGAGTKLELK
notes: murine hybridoma antibody, IgG1/k; also called original murine antibody mAb002
B6: mAb005 (antibody, V domains shown)
VH: QVQLQQSGPELVKPGASVKISCKASGYSFTSYYIHWVQQRPGQGLEWIGWIYPGSDNTKYNEKFKDKATLTADTSSGTAYMQLSSLTSDDSAVFYCARNYYDYDGGTWFPYWGQGTLVTVSA
VL: DIQMTQTTSSLSASLGDRVTISCRASQDINYYLNWYQQKPDGTVKLLIYYTSRLHSRVPSRFSGSGSGTDYSLTISNLEQEDIATYFCQQGNTLPWTFGGGTKLEIK
notes: murine hybridoma antibody, IgG1/k; also called original murine antibody mAb005
B7: AXL107 (antibody, V domains shown)
VH: EVQLLESGGGLVQPGGSLRLSCAASGFTFSSYAMNWVRQAPGKGLEWVSTTSGSGASTYYADSVKGRFTISRDNSKNTLYLQMNSLRAEDTAVYYCAKIWIAFDIWGQGTMVTV
VL: not shown
notes: also called control antibody AXL107; AXL07
B8: mAb001c (antibody, V domains shown)
VH: B4 VH
VL: B4 VL
notes: also called human-mouse chimeric antibody mAb001c
B9: mAb005c (antibody, V domains shown)
VH: B6 VH
VL: B6 VL
notes: also called human-mouse chimeric antibody mAb005c

What was measured:
[1] = target: T1, human AXL on the surface of tumor cells; assay: FACS on LCLC-103H cells
Protocol: (§1) Then the obtained solutions were incubated at 4° C. for 1 h, the cells were washed twice with PBS to remove unbound primary antibody, and then the target cells were incubated with 200 μL PE-labeled secondary antibody (2 μg/mL) at 4° C. for 30 min. The cells were washed twice with PBS to remove unbound secondary antibody. Finally, the cells were resuspended in 200 μL PBS, and the binding affinity of the test antibody to AXL on the cell surface was determined by a flow cytometer (FACSCalibur)
The experimental method was referred to Example 8.

[2] = target: T1, human AXL on the surface of tumor cells; assay: FACS on MDA-MB-231 cells
Protocol: as §1
24 humanized antibodies in Table-6 were diluted by gradient, and their affinities to AXL, on the surface of MDA-MB-231 cells were determined by flow cytometer. The experimental method was referred to Example 8.

[3] = target: T2, extracellular domain of human AXL …; assay: ELISA, plate-coated AXL-ECD
Protocol: (§2) The extracellular domain of AXL protein (AXL-ECD) was diluted to […] with the coating solution, and coated onto ELISA plate with 100 μL/well at 4° C. overnight. The excess antigen was washed off. The plate was blocked with 1% BSA at room temperature for 2 h, then each monoclonal antibody in a 3-fold dilution was added at 100 µL/well. The plate was incubated at room temperature for 1 h; the unbound antibody was washed off, and appropriate concentration of anti-mouse secondary antibody labeled with horseradish peroxidase was added at 100 µL/well. The plate was incubated at room temperature for 0.5 h. The unbound secondary antibody was washed off. TMB Substrate was added and reacted for about 15 minutes. 1N HCL was added at 50 µL/well to stop the color reaction. Then the absorbance was measured at 450 nm and the obtained data was analyzed.
24 humanized antibodies in Table-6 were diluted by gradient, and their affinity to AXL-ECD protein was determined by ELISA. The experimental method was referred to Example 4.

[4] = target: T3, cynomolgus monkey AXL on the surface of HEK-293T cells (cynomolgus monkey); assay: FACS on HEK293T cells transiently expressing monkey AXL
T3 construct: transiently expressed in HEK293T cells from pcDNA3.1
Protocol: 3. HEK293T cells were spread to a 50% density in a culture dish, and cultured overnight at 37° C. to a confluence of about 80%. […] of monkey/mouse-AXL vector plasmid prepared above was transiently transfected into the cells with Liposome Lipo2000 (Invitrogen). 24 hours after transfection, the proteins were collected for Western blot analysis, and the cells were collected for FACS to detect the binding activity of Hu002-2 and monkey/mouse AXL on HEK293T cell surface. The FACS detection test method may be referred to Example 18.

[5] = target: T2, extracellular domain of human AXL …; assay: ELISA, AXL-ECD
[6] = target: T1, human AXL on the surface of tumor cells; assay: FACS on NCI-H1299 cells
Protocol: as §1
AXL-high-expression lung cancer cells NCI-H1299 were used as target cells. 100 μL of the test antibody diluted in a 3-fold gradient was used as primary antibody, and mixed with 1×10⁵ NCI-H1299 cells suspended in 100 μL RPMI-1640 serum-free medium. The operation method was the same as above. Finally, the cells were resuspended in 200 μL PBS, and the binding affinity of the tested antibody to AXL on the cell surface was determined by a flow cytometer (FACSAria II).

[7] = target: T1, human AXL on the surface of tumor cells; assay: FACS on MDA-MB-231 cells; remark: listed apart in the source
Protocol: as §1

[8] = target: T2, extracellular domain of human AXL …; assay: ELISA, plate-coated AXL-ECD; remark: listed apart in the source
Protocol: as §2

[9] = target: T1, human AXL on the surface of tumor cells; assay: FACS on MDA-MB-231 cells, mean EC50
Protocol: as §1

Binder	EC50 [1] [nM]	EC50 [2] [nM]	Highest MFI value (FACSCalibur) [2] [MFI]	EC50 [3] [nM]	TOP (OD450) [3] [OD450]	EC50 [5] [nM]	EC50 [6] [nM]	Highest MFI value (FACSAria II) [6] [MFI]	Highest MFI value (FACSCalibur) [7] [MFI]	EC50 [8] [nM]	Highest reading (OD450 nm) [8] [OD450 nm]	EC50 [9] [nM]	other results
B1	0.28	0.101	277	0.07	3.62	–	–	–	–	–	–	–	–
B2	0.37	0.112	278	0.055	3.6	–	–	–	–	–	–	–	EC50 [4]: 0.135 nM
B3	0.49	0.09	277	0.055	3.6	–	–	–	–	–	–	–	–
B4	–	–	–	–	–	0.073	–	–	–	–	–	–	–
B5	–	–	–	–	–	0.063	–	–	–	–	–	–	–
B6	–	–	–	–	–	0.092	–	–	–	–	–	–	–
B7	0.8	–	–	–	–	–	0.655	2010	218	0.075	3.77	0.433	–
B8	–	–	–	–	–	–	1.49	2370	217	0.092	3.8	0.84	–
B9	–	–	–	–	–	–	0.908	2140	208	0.103	3.78	0.4	–
